Data: US20180105595A1

B1: anti-human EGFRvIII WTE-CH12 antibody (antibody, V domains shown)
VH: DVQLQESGPGLVKPSQSLSLTCTVTAYSVTSDYAWNWIRQFPGNKLEWMGYISYSGTTRYNPSLKSRISITRDTSKNQFFLQLNSMTAEDTATYYCSRQGRGFPYWGQGTLVTVSA
VL: DILMTQSPSSMSVSLGDTVSITCHASQDINSNIGWLQQKPGKSFKGLIYHGTNLEDGVPSRFSGSGSGADYSLTISSLESEDFADYYCVQYAQFPWTFGGGTKLEIKR

Key:
[1] = molecular target: 2D8 scFv (anti-WTE)-CD8 hinge region-CD28a-CD28b-CD137-CD3ζ chimeric antigen receptor on T lymphocytes (human) (UniProt P01732); test: cell-based or functional assay
[2] = molecular target: human EGFRvIII (human) (UniProt P00533); test: cell-based or functional assay

Sequence of UniProt P01732 (P01732 other isoform, or with tags, fused parts or gaps mutant limits assumed): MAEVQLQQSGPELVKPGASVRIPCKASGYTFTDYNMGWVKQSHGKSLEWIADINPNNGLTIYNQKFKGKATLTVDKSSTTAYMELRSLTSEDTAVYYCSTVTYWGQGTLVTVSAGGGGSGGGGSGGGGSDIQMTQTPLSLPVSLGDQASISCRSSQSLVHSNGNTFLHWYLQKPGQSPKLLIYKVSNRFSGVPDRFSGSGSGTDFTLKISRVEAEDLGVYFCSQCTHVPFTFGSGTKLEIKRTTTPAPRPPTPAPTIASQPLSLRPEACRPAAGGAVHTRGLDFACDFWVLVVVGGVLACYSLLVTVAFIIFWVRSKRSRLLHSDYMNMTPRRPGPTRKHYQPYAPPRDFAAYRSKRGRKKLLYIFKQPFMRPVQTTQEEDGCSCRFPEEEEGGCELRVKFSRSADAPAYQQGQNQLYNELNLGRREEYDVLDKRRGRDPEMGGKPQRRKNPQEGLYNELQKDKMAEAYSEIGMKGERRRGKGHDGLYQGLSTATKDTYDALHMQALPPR

Molecule	reduction of WTE-CH12-mediated cytotoxicity of CAR+ T cells on U87MG-EGFRvIII, free WTE polypeptide at 2-fold molar concentration of WTE-CH12, against Experimental group 1 [1] [%]	reduction of WTE-CH12-mediated cytotoxicity of CAR+ T cells on U87MG-EGFRvIII, free WTE polypeptide at 20-fold molar concentration of WTE-CH12, against Experimental group 1 [1] [%]	cytotoxicity % (LDH release) of anti-WTE CAR+ T cells on Huh-7-EGFRvIII cells at 10^4 ng/ml WTE-CH12, effector:target 3:1 [2] [%]	cytotoxicity % (LDH release) of anti-WTE CAR+ T cells on U87MG-EGFRvIII cells at 10^4 ng/ml WTE-CH12, effector:target 10:1 [2] [%]
WTE polypeptide (free) (from UniProt P00533 1189-1210)	31.1	87.8		
B1			93	98.3
